The text below walks through data of patent publication US20060211075A1, “Enzyme sensors including environmentally sensitive or fluorescent labels and uses thereof” (The Albert Einstein College of Medicine of Yeshiva …, priority 2005, published 2006).

pKd: −log10 of the molar value.

Test [1] has as its target phosphotyrosine version of peptide 13, Ac-Glu-Glu-Glu-Ile-pTyr-Dap(NBD)-Glu-Ile-Glu-Ala-amide. Description: fluorescence titration: Src-phosphorylated peptide 13 fixed at 16 µM, GST-Lck-SH2 varied, nonlinear regression.
The target in test [2] is phosphorylated peptide 14, Ac-Glu-Glu-Glu-Ile-pTyr-Gly-Glu-Ile-Dab(dapoxyl)-Ala-amide. Description: Src phosphorylation of 8 µM peptide 14 at 0.2 µM Lck-SH2, fluorescence.
The target is the same in test [3]. Put plainly: Src phosphorylation of 8 µM peptide 14 at 2 µM Lck-SH2, fluorescence.
Test [4] addresses phosphotyrosine version of peptide 13, Ac-Glu-Glu-Glu-Ile-pTyr-Dap(NBD)-Glu-Ile-Glu-Ala-amide. Description: Src phosphorylation of 16 µM peptide 13 at 26 µM Lck-SH2, fluorescence.
For test [5] the target is unchanged. Description: Src phosphorylation of 16 µM peptide 13 at 12 µM Lck-SH2, fluorescence.
For test [6] the target is unchanged. Description: Src phosphorylation of 16 µM peptide 13 at 20 µM Lck-SH2, fluorescence.
Test [7] has the same target. Description: Src phosphorylation of 16 µM peptide 13 at 0 µM Lck-SH2 (baseline point of the titration).
For test [8] the target is unchanged. Put plainly: Src phosphorylation of 16 µM peptide 13 at 4 µM Lck-SH2, fluorescence.
In test [9] the target is phosphorylated peptide 14, Ac-Glu-Glu-Glu-Ile-pTyr-Gly-Glu-Ile-Dab(dapoxyl)-Ala-amide. Put plainly: Src phosphorylation of 8 µM peptide 14 at 12 µM Lck-SH2, fluorescence.
Test [10] has the same target. Put plainly: Src phosphorylation of 8 µM peptide 14 at 16 µM Lck-SH2, fluorescence.
For test [11] the target is unchanged. Put plainly: Src phosphorylation of 8 µM peptide 14 at 32 µM Lck-SH2, fluorescence.
Test [12] addresses phosphotyrosine version of peptide 13, Ac-Glu-Glu-Glu-Ile-pTyr-Dap(NBD)-Glu-Ile-Glu-Ala-amide. Description: Src phosphorylation of 16 µM peptide 13 at 16 µM Lck-SH2, fluorescence.
The target of test [13] is phosphorylated peptide 14, Ac-Glu-Glu-Glu-Ile-pTyr-Gly-Glu-Ile-Dab(dapoxyl)-Ala-amide. Description: Src phosphorylation of 8 µM peptide 14 at 8 µM Lck-SH2, fluorescence.
For test [14] the target is unchanged. Description: Src phosphorylation of 8 µM peptide 14 at 20 µM Lck-SH2, fluorescence.
The target of test [15] is phosphotyrosine version of peptide 13, Ac-Glu-Glu-Glu-Ile-pTyr-Dap(NBD)-Glu-Ile-Glu-Ala-amide. Description: Src phosphorylation of 16 µM peptide 13 at 8 µM Lck-SH2, fluorescence.
Test [16] has as its target phosphorylated peptide 14, Ac-Glu-Glu-Glu-Ile-pTyr-Gly-Glu-Ile-Dab(dapoxyl)-Ala-amide. Description: Src phosphorylation of 8 µM peptide 14 at 4 µM Lck-SH2, fluorescence.
The target is the same in test [17]. Description: Src phosphorylation of 8 µM peptide 14 at 26 µM Lck-SH2, fluorescence.
Test [18] addresses phosphotyrosine version of peptide 13, Ac-Glu-Glu-Glu-Ile-pTyr-Dap(NBD)-Glu-Ile-Glu-Ala-amide. Put plainly: Src phosphorylation of 16 µM peptide 13 at 32 µM Lck-SH2, fluorescence.

For “GST-Lck-SH2 (from UniProt P06239 127-224)”, the pKd (in general, the negative decadic logarithm of the Kd, by convention in mol/L) in test [1] is 5.68. The Fluorescence Increase (fold change) came out at 1.07 fold in [2]; 1.7 fold in test [3]; 1.61 fold in test [4]; 1.41 fold in test [5]; 1.56 fold in test [6]; 1.07 fold in [7]. Further, the Fluorescence Increase (fold change) was determined as 1.24 fold in [8]; 5.34 fold in test [9]; 6.2 fold in test [10]; 7.2 fold in [11]; 1.52 fold in test [12]; 4.31 fold in test [13]. For the same substance, the Fluorescence Increase (fold change) in test [14] was determined as 6.85 fold; in [15] it was 1.33 fold; in test [16], 2.32 fold; in [17], 7.32 fold; in [18], 1.59 fold.
